{"source": "patent US20060286636A1", "about": "(published 2006)", "binders": {"B1": {"name": "VEGF164 double mutant R14A/R49A (ligand)", "chain": "APMAEGGGQNHHEVVKFMDVYQRSYCHPIETLVDIFQEYPDEIEYIFKPSCVPLMRCGGCCNDEGLECVPTEESNITMQIMRIKPHQGQHIGEMSFLQHNKCECRPKKDRARQENPCGPCSERAKHLFVQDPQTCKCSCKNTDSRCKARQLELNERTCACDKPRR", "notes": "ID No. 23; also called R14/R49A; mutant R14/R49A"}, "B2": {"name": "VEGF164 (wild type) (ligand)", "chain": "APTTEGEQKSHEVIKFMDVYQRSYCRPIETLVDIFQEYPDEIEYIFKPSCVPLMRCAGCCNDEALECVPTSESNITMQIMRIKPHQSQHIGEMSFLQHSRCECRPKKDRTKPENHCEPCSERRKHLFVQDPQTCKCSCKNTDSRCKARQLELNERTCRCDKPRR"}, "B3": {"name": "VEGF164 mutant K26A (ligand, mouse, UniProt Q00731-2 27-190, looked up)", "chain": "B2 chain with K135A", "notes": "mature"}, "B4": {"name": "recombinant heparin-binding domain of VEGF164 (HBD) (peptide)", "chain": "ARQENPCGPCSERRKHLFVQDPQTCKCSCKNTDSRCKARQLELNERTCRCDKPRR", "notes": "also called soluble HBD; VEGF55"}, "B5": {"name": "VEGF120 (ligand)", "chain": "APTTEGEQKSHEVIKFMDVYQRSYCRPIETLVDIFQEYPDEIEYIFKPSCVPLMRCAGCCNDEALECVPTSESNITMQIMRIKPHQSQHIGEMSFLQHSRCECRPKKDRTKPEKCDKPRR"}}, "key": {"[1]": {"target": "T1, rat Neuropilin-1/Fc chimeric receptor (rat, UniProt Q9QWJ9 22-854)", "T1 sequence (Q9QWJ9 22-854, stated change not applied)": "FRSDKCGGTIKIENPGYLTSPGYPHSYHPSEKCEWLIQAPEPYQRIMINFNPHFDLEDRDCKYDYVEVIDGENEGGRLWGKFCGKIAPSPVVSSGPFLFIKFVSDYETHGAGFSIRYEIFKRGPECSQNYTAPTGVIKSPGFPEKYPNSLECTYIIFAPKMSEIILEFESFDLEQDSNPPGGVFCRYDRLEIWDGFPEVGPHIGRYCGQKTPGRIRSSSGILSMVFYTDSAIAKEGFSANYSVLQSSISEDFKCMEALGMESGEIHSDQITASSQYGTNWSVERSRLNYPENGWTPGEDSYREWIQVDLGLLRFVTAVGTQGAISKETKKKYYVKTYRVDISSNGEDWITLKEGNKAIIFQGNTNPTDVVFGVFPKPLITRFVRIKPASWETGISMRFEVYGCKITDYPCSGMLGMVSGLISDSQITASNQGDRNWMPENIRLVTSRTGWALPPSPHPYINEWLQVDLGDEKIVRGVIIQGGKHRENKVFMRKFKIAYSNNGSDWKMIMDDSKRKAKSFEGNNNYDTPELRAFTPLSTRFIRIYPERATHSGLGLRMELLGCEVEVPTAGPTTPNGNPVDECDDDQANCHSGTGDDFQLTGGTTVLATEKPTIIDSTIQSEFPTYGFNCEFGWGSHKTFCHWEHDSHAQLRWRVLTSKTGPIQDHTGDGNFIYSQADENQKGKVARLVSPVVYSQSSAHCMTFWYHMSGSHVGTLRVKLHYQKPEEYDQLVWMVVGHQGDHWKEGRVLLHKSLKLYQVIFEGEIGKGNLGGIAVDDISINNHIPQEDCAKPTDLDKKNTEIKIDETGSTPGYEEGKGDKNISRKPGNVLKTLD", "experiment": "competition plate binding assay: cold competitor against 125I-VEGF165 on immobilized Np-1/Fc, scintillation counting"}, "[2]": {"target": "T2, mouse VEGFR-2/Fc chimeric receptor (mouse, UniProt P35918 20-762)", "T2 construct": "Bought from R&D Systems; also called KDR; KDR receptor", "T2 sequence (P35918 20-762, stated change not applied)": "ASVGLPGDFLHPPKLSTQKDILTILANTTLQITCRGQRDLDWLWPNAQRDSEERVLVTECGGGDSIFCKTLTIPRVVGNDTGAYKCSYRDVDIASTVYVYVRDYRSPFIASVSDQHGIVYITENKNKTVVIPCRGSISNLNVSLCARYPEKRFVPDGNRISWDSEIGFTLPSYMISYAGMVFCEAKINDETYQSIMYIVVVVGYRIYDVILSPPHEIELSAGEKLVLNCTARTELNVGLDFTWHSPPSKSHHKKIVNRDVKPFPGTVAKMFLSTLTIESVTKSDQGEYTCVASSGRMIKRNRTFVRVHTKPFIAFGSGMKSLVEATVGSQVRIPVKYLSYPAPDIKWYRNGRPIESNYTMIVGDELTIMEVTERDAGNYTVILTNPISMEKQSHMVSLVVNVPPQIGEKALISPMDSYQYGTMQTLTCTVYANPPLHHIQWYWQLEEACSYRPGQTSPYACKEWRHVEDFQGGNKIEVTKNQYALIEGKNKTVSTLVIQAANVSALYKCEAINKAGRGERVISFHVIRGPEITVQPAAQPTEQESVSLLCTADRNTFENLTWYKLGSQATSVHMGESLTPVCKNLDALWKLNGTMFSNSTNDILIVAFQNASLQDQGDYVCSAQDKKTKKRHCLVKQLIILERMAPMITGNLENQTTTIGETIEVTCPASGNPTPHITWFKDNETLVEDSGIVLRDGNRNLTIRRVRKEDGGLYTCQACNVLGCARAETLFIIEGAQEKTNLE", "experiment": "competitive binding of cold competitor against 125I-VEGF165 on immobilized mouse VEGFR-2/Fc, one-site competition fit [panel VEGFR-2]"}, "[3]": {"target": "T3, mouse VEGFR-1/Fc chimeric receptor (mouse, UniProt P35969 23-759)", "T3 construct": "Bought from R&D Systems; also called Flt-1; Flt-1 receptor", "T3 sequence (P35969 23-759, stated change not applied)": "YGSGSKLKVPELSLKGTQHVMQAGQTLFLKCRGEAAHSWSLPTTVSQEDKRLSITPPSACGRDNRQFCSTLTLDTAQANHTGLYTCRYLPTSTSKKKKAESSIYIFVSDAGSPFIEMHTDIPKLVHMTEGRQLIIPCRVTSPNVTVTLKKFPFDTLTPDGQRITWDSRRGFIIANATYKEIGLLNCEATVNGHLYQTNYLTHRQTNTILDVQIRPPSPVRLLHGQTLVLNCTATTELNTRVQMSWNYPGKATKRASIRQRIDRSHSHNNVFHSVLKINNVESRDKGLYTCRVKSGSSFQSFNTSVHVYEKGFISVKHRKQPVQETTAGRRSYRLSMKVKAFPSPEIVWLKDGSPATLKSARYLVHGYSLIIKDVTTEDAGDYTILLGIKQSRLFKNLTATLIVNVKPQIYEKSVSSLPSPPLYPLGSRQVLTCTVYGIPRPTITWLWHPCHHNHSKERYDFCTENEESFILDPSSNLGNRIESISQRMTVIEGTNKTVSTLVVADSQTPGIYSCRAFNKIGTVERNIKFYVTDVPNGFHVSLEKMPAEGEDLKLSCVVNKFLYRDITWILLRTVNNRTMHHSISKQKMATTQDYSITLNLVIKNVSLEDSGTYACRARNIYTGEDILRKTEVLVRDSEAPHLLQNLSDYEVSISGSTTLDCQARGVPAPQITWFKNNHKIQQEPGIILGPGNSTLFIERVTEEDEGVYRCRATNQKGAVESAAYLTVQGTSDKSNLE", "experiment": "competition plate binding assay: cold competitor against 125I-VEGF165 on immobilized VEGFR-1 (Flt-1)/Fc, scintillation counting"}, "[4]": {"target": "T1, rat Neuropilin-1/Fc chimeric receptor", "experiment": "competition plate binding assay, cold competitor against 125I-VEGF165 on immobilized rat neuropilin-1/Fc, without heparin"}, "[5]": {"target": "T2, mouse VEGFR-2/Fc chimeric receptor", "experiment": "competition plate binding assay: cold competitor against 125I-VEGF165 on immobilized VEGFR-2 (KDR)/Fc, scintillation counting"}, "[6]": {"target": "T1, rat Neuropilin-1/Fc chimeric receptor", "experiment": "competition plate binding assay, VEGF164 against 125I-VEGF165 on immobilized rat neuropilin-1/Fc, compared with HBD"}, "[7]": {"target": "T3, mouse VEGFR-1/Fc chimeric receptor", "experiment": "competitive binding of cold competitor against 125I-VEGF165 on immobilized mouse VEGFR-1/Fc, one-site competition fit [panel VEGFR-1]"}, "[8]": {"target": "T1, rat Neuropilin-1/Fc chimeric receptor", "experiment": "competition plate binding assay, HBD against 125I-VEGF165 on immobilized rat neuropilin-1/Fc"}}, "note": "Positions count from the first letter of the chain named. Numbers in names are those of the source."}
{"binder": "B1", "values": [{"measurement": "IC50 (read off the curve)", "setting": "[1]", "value": "~5", "unit": "nM"}]}
{"binder": "B2", "values": [{"measurement": "IC50 (read off the curve)", "setting": "[2]", "value": "~0.2", "unit": "nM"}, {"measurement": "IC50 (read off the curve)", "setting": "[3]", "value": "~0.02", "unit": "nM"}, {"measurement": "IC50", "setting": "[4]", "value": 0.128, "unit": "nM"}, {"measurement": "IC50 (read off the curve)", "setting": "[5]", "value": "~0.08", "unit": "nM"}, {"measurement": "fold stronger competitive binding than HBD", "setting": "[6]", "value": "~230", "unit": "fold"}, {"measurement": "IC50 (read off the curve)", "setting": "[7]", "value": "~0.04", "unit": "nM"}]}
{"binder": "B3", "values": [{"measurement": "IC50 (read off the curve)", "setting": "[1]", "value": "~0.4", "unit": "nM"}, {"measurement": "fold reduction of binding affinity compared to VEGF164", "setting": "[4]", "value": 2.5, "unit": "fold"}]}
{"binder": "B4", "values": [{"measurement": "IC50", "setting": "[8]", "value": 28.6, "unit": "nM"}]}
{"binder": "B5", "values": [{"measurement": "IC50 (read off the curve)", "setting": "[3]", "value": "~0.09", "unit": "nM"}, {"measurement": "IC50 (read off the curve)", "setting": "[5]", "value": "~0.08", "unit": "nM"}]}
